Results: patent US20230226096A1 (Orna Therapeutics, Inc., priority 2020, published 2023)

B1: Hepacivirus I (nucleic acid)
DNA: CAGGGTTTCGACCCTGGCCCGGATACCTATCGCCTTACGCCGAAAGGTAACGAGTAGGAGTCGGGTCCCCAGGCCCTTACCGCCACCAAGCCAGGTGGGGAGGTATGGGAGCCGGGGGGTGCAGCTGGTAGCTCCATGGGGGACGCCCCGTGAGCGGATGCTGCATCGATACCGGGTTAGCTCTCTGGGAGAGCGGCACTTGACACCACGAATCCGGGAACCGGACAATCGCCGGCGTGGGACGCGTTGCCTCCGTGGCCGAGCAATTTGGCATGCCCGTGGTGAAGAGTGATGGTGGGGGGGGGCCCCCCTTCCAGTACCGTACTGCCTGATAGGGTCTTGCCTCAAGCCCAGAGAGTCGAGGCTGAAAACCGCCATC
modifications: Hepacivirus I
B2: Rosavirus 2 GA7403 (nucleic acid, listed as Rosavirus sp.)
DNA: CCAGGCATGGCGTTAAACATGCATTCCCTTCCCCTAGTAACCTCCCTTCGCCCCTTCCCCACGTTGTACCCCCTCCGAGATGGCTGCTAAGGCGCTTGCTGCTACAGCAGTCTCGTGTTTCGGGTGTTATAAGTGCTTTCTTTTCCACTCCACTCCCTGCCTATGGGGAGCGGAACGGCCTTGTCTCGGTCGTTGCTTCTTGCAGATCTTCACCCCTCCAGGCTTTCTGGACTCGCCAGGGGTGGAGTAGTAGGCGCACTGTCTAAGTGAAGGTAGCAGTGTTGTTGGCGAAGAGTTGTGGACCTACTTTGAGTTTGTAGCGATCATCCAGAGCTAGCGGATCTCCCCACGCGGTAACGCGTGCCTCTAGGCCCAAAAGGCACGGTGTTCACAGCACCCTTTGGATGGCGGGGGTGCCCCCCTCCGCACTTAAAGTAGAAAAACAGCTTAGTAGTCAAATAACATGGCTTTCCTCAAGCATTCAGTGCTACATGGGACTGAAGGATGCCCAGAAGGTACCCGCAGGCAACGATAAGCTCACTGTGGATCTGATCTGGGGCCCTGGGCCAGGTGCTATACACCTGGTTAAAACCAAATCTGGTAGTCAGGGTTAAAAAACGTCTAAGTCCCACCCCCCCGGGGACGGGGGGTTCCCTTAAACCCTCAACTGACACC
B3: Hepacivirus J (nucleic acid)
DNA: GCCGCTCCCGAAAGGGAGTCCGGCGCGTCATCCCACTCCGAGGAGTGGGGTGGCGTCCCCGTGTGCCGGGGAACCATGAAGCCTAAGGGCATCCACATTTTAGAATGAACTTGAAGCTTCGTTTCGCTGGCCGGAAAGTCCTGGGTTCCCATGGCCAGGGTTCCGCAGGTGGGTAAATCCCGGTGGGGTTCCATCCAGGATATACGGCAGGCGGGCGTAGTCCGGCGGTTCGGACGACGTGTGGGTCGCCTACGGTGGATTGTTCACAGGATGGGCACTCCGGTGTGAATAGGCCCCGTCAGGGTGCGCTGACGTTAAACTCAGGCCTTGCCTGGTGTTCGGGGAGGATTGCAGGGCCACGCCGCCTCTAAGGGCCGTATGGCACAGTACTTCTTCGGGCGGGTTGTCAAGGCCCTCCAACGCGACACCAGTGCCTCGGCAGGCATGGGGCCACCCAGCTCGGCGTCCCGCACACAGACGGCGTAGGGGAAAATCAGCAATGTGACCCCGGGTGGCATTTTCCTTCTCTCTACTTCCATGCATGATCAACCGCAATC
modifications: Hepacivirus J
B4: Icavirus (nucleic acid)
DNA: CGAAGTTTAAGCTAAGCACCCTCGGGCGTTCCCGGATTATGTGATCACATCAATTTGATGGCTGGTCACCACGCAACGCCTGGAGAGATACTCTTACTTTTCTCTTAAGATCCCCGGTCATTTGACGCTTGTAGGATGATAGGGTTATTTTCCACTATAAATACTTTCATACTCTTGGATGTTCTATATCCAAGACGGGAGGACCTACCCCGTACCCCTTAGAGGTGAGATGCCAAGAACAGGCCCTTTCTGTTCTCTCGACAATGGCATCATAGGCAACAAGCATCACACCAAGATTGCTAAGTTTTGTTAAGAGTTCTTCAAGCTATAGGGTGGCTGTAGCGACCTTCTGATGCCTGCGGATTTCCCCACGGAGCGATCCGTGCCACAGGGGCCAAAAGCCACGGCTAACGCCCATCAGGAGCGGCACTTACCCCGTGCCCCACCCTTGAAACTTGAATGTTCACACTGGCTTCTCTCGGCTTTCTGAACTGTCTGCTTGTTGGGGCCCCGAAGGATGCCCTGGAGGTACCCCATTTTATGGGATCTGACCAGGGGACACCTCAGCTCTCTAAGTTGCTGGTGTTTAAAAAACGTCTAAGGGCCCCCACCCCTTAGGTGGAGGGATCCACCTTTCCTTTATTTTTTAAAACTCTTTTATGGTCACAATTGTTT
B5: Antarctic penguin virus A (nucleic acid)
DNA: CTAGGAGACTACGCAGTGGGATAAGATGACTATGATGTCGTACGGGCAGAAGCCAGTACAGTCGAAGTCGAGACCGACGTCGAGGATTTGACTCTGCCTGACCTAGTGCCATC
modifications: chemistry not fully specified; the letters are possibly those of the target site
B6: Avisivirus Pf-CHK1 (nucleic acid, listed as Avisivirus sp.)
DNA: CATTCCCCTTTCCCCAGCCATGGGTTAAATGGCCCCTCACCAGGTTCGGTGCTGTCTAGGCTTCCAGTAAAGAAGTCAACCGAGCATTGAACAAAACCTCAGTGGGTATGGTAGTTAACCCCGTCCACTGGACAACTTTGTCCTCTTAAAAGTGGATCAATCCACCCCAACTCCCCCCCTAGCCACCTGAGCCATGGTGGATAGCAGTGACGAAACTAGGGACCCCAATACCTCTAGTGCCAAGAGAATTCCCCCCTCGCGAGAGGTGCTCTTGGGCCCGAAAGGCTAGTTGGCAGGGTGAAGTGAAGGAAGCTGCTAGCGTGGCAACCTTAAGCGTAGCCCGAAGCTGACCTTAGAGGTTAACCCTAGTGGACCACTGGATGAAGCTGTGGAGGTGGTGGATAGGAAAGTTGGCCACTTGTGAGTAGATGCCCAGAAGGCATAAGGCTGATCTGGGGCCAGTGACTATACCGTTCCGGTAAACCTGGTATAAAAACCATGAAAGCAAGTGGGTTTAAAATTTCTTCTAATTCCTTCATTTCAGTAGTGATAACTGGCAGA
B7: Bat Hp-betacoronavirus (nucleic acid)
DNA: TTAAGCTTCGGCTTGTTGCATAGGACCGGAAAGGTACTATCTACCCTAACTCTTGTAGTTAGACTCTCTAAACGAACTTTAAAACTGGTTGTGTCCTTCAGTAGTCTGTATGGCCATTGGAGGCACACCGGTAATTATCAAATACTAAGAAGATTCATAGTACATCCTTGTCTAGCTTTTGGTTGGCAGTGAGCCTACGGTTTCGTCCGTGTCGCTCACAATTATCCACACAGTAGGTTTCGTCCGCTGTGGTTGAGTTGCTAGTCCGTTGCTGTTTCGTCAGCCATCTACAACTCGACACC
modifications: Bat Hp-betacoronavirus
B8: Basella alba endornavirus (nucleic acid)
DNA: GGAATATGGCTAATCGGCTTATTCTAATCAAACGCAAAAGACTTATGACACAGACCGGACCTGAACGAGGTGATAAAACACCTCGTTCAGGTTCAAAACGTAGAAGATTCATTCCTCCGATTAGAAATACAACTACGTCTAAGCACGATAGAGATGGTATCAAGATCGGTTTTAGACCACGAGAAAATCGGCAAATGAAAGTACAAGTTGGGTGGTTTAAATTACCAAGAACAGTAACATTCAAGAACAACGGCAACCCGTTTGTTACCTCATTTCGTAAATTGTTTAGAAGTAACAAAGATAAATTATTTAATGGTGGGAAGAACCTAAGTACAGTACCAGCCAGAAGTAGTGAAATGACAGAAATGTTTATGTTCATGTCCACGCTAGAGGGCCAATTGTCAATCCAAGATCGAGATCCAAAAATAATCAATAAGTCTATATACATGATAGAGGTA

Test system: HEK293 cells
Assay type: cell-based, human
Details: luminescence from secreted Gluc in supernatant 24 hours after transfection of HEK293 cells; circular RNA encoding Gluc with the named IRES (UTR truncated to 675 nt)

Molecule | Expression
B1 | 7.50E+04
B2 | 5.05E+06
B3 | 7.65E+04
B4 | 4.41E+06
B5 | 8.42E+04
B6 | 1.19E+05
B7 | 8.47E+04
B8 | 7.65E+04
